Laboratory results as given in PMC8164048.

Columns and labels:
[1] = target: Full-length human low-density lipoprotein receptor-related protein 1 (LRP1) (human) (UniProt Q07954); test: SPR; full-length LRP1 coupled to the chip (Biacore 3000); single-cycle kinetic titration of tau forms (3.8, 11.5, 34.4, 103.3, 310 nM, 3.5-min injections), with Ca2+; Req from a pseudo first-order fit plotted against concentration, KD by nonlinear regression
[2] = target: Full-length human low-density lipoprotein receptor-related protein 1 (LRP1) (human) (UniProt Q07954); test: SPR; LRP1-coupled chip; lipid-free apoE isoforms injected at 52, 104, 208, 417, 834, 1668 nM; association and dissociation fit globally to a bivalent binding model; KD = 1/KA, KA = (ka1/kd1)*(1+(ka2/kd2))
[3] = target: Full-length human low-density lipoprotein receptor-related protein 1 (LRP1) (human) (UniProt Q07954); test: SPR; LRP1-coupled chip; lipid-free apoE isoforms; equilibrium analysis, Req from a pseudo first-order fit of the association data

Chain of UniProt Q07954 (Q07954 20-4544): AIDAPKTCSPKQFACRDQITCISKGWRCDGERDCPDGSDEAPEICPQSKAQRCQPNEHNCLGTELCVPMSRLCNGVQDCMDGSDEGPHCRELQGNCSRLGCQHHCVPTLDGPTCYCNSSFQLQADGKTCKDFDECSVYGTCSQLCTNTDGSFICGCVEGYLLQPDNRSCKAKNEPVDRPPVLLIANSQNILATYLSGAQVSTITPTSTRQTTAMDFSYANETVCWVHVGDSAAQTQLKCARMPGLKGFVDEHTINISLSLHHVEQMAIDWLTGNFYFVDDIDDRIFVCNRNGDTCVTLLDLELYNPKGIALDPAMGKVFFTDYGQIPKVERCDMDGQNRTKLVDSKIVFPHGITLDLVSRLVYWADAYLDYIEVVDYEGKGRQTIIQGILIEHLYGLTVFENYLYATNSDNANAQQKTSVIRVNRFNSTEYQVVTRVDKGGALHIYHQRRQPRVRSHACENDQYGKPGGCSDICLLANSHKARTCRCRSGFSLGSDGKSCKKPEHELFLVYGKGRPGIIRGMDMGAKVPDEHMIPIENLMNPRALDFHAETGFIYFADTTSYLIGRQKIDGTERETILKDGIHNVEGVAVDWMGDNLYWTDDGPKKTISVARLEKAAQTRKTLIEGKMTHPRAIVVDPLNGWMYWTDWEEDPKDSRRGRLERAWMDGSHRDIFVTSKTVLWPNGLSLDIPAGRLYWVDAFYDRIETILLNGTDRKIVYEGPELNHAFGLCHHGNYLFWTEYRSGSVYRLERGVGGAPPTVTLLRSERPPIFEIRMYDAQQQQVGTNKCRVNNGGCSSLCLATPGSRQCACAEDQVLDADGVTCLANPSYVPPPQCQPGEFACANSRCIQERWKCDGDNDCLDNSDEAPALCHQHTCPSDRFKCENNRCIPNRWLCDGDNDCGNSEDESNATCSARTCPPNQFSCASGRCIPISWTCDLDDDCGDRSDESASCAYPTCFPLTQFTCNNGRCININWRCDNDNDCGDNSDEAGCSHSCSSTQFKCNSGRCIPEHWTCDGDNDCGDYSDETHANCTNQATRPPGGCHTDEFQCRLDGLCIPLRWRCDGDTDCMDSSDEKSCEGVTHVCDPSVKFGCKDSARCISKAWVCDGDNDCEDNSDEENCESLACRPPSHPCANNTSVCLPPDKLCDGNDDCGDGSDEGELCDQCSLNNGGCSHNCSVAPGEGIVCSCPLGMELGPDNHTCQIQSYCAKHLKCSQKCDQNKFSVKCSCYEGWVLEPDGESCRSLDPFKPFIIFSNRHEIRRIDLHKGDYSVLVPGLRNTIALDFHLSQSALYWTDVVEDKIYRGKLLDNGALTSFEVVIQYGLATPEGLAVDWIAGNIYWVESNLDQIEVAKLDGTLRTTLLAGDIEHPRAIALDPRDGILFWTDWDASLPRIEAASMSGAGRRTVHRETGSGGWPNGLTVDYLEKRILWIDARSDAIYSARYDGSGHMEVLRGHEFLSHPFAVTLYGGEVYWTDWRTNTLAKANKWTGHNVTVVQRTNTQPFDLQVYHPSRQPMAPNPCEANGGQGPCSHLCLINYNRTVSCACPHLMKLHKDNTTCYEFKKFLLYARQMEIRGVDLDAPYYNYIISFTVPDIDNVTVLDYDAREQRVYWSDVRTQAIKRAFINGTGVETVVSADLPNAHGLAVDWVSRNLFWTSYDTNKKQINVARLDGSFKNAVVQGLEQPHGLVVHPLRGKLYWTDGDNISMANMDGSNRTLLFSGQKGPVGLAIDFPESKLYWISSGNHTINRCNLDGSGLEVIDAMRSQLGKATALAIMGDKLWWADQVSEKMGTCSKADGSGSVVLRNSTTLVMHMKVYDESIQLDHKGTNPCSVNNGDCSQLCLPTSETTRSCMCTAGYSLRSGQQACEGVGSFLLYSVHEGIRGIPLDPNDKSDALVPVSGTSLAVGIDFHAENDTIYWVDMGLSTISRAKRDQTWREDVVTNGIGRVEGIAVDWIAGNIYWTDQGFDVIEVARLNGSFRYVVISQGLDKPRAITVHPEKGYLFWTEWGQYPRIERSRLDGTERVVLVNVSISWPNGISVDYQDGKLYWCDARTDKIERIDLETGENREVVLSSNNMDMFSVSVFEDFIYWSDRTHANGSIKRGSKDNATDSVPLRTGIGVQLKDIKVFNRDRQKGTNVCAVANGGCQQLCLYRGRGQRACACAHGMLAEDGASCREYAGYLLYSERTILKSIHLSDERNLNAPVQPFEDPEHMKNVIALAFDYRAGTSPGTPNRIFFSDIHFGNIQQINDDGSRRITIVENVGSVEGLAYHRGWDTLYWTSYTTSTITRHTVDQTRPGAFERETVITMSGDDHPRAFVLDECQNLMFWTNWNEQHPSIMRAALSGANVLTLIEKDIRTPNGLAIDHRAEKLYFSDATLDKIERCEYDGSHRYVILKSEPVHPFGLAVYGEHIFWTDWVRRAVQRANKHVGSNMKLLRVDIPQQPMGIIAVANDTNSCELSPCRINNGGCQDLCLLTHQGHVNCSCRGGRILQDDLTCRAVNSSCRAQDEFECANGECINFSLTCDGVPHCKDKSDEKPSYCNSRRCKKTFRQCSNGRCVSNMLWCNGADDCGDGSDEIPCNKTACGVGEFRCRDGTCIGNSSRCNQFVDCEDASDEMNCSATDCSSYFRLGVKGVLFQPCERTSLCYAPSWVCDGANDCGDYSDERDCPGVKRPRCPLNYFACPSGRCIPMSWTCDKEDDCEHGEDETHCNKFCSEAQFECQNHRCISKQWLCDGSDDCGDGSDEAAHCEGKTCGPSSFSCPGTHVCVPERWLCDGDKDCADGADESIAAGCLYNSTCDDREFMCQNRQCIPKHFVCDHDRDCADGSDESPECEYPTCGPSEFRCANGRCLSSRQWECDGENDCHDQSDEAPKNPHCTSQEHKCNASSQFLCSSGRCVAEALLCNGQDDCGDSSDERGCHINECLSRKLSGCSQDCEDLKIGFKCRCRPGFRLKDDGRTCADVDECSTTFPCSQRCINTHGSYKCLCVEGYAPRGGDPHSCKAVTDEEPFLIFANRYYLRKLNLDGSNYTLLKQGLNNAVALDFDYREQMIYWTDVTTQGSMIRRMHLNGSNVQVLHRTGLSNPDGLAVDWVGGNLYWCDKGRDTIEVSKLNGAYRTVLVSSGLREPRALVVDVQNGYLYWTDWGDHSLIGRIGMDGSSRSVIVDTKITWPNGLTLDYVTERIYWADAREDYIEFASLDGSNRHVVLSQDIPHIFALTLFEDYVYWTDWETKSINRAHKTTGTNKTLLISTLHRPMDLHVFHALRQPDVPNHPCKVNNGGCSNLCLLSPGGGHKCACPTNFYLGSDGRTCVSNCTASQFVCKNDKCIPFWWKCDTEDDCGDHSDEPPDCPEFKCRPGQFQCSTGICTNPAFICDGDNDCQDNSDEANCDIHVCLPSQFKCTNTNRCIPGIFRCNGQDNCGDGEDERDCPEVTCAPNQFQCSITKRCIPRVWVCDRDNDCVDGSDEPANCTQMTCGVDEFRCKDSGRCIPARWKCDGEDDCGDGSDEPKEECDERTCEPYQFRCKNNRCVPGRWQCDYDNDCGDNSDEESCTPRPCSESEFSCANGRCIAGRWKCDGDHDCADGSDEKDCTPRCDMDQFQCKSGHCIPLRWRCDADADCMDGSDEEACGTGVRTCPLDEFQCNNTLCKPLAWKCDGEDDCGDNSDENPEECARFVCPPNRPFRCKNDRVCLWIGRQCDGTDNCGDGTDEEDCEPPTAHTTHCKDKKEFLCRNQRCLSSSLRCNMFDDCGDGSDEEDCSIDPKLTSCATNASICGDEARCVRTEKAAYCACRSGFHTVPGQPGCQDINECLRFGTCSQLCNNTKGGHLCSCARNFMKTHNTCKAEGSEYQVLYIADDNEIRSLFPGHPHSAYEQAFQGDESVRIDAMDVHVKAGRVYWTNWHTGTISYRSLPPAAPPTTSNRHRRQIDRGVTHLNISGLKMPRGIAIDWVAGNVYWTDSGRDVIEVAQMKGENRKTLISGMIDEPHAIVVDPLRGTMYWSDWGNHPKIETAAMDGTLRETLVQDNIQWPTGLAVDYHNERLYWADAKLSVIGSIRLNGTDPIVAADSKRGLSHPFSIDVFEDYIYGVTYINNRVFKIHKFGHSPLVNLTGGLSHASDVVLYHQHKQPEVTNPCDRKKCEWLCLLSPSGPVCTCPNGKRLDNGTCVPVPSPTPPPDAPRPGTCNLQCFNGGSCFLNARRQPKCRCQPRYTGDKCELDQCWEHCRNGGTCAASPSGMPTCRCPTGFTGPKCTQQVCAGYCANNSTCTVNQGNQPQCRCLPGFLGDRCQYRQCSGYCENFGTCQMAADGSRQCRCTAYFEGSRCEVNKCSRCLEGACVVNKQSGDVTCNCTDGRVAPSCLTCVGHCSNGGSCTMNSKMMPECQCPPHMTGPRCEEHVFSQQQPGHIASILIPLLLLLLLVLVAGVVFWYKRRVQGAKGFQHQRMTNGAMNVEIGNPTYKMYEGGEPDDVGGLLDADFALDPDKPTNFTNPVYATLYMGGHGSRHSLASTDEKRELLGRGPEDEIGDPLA

Kd [1] | Kd [2] | ka1 [2] | ka2 [2] | kd1 [2] | kd2 [2] | Kd [3] | Substance
372 nM |  |  |  |  |  |  | 9XKQ 2N4R tau (natural protein)
 | 202 nM | 62000 M⁻¹ s⁻¹ | 0.0099 s⁻¹ | 0.065 s⁻¹ | 0.0027 s⁻¹ | 236 nM | Recombinant human apolipoprotein E4 (lipid-free) (from UniProt P02649 19-317) (ligand)
 | 529 nM | 34000 M⁻¹ s⁻¹ | 0.01 s⁻¹ | 0.086 s⁻¹ | 0.0028 s⁻¹ | 493 nM | Recombinant human apolipoprotein E2 (lipid-free) (from UniProt P02649 19-317) (ligand)
